{"source": "paper PMC10133315", "about": "“Overcoming adaptive resistance to anti-VEGF therapy by targeting CD5L”", "target": "T1, CD5L (AIM) (Homo sapiens, UniProt O43866 20-347)", "T1 sequence": "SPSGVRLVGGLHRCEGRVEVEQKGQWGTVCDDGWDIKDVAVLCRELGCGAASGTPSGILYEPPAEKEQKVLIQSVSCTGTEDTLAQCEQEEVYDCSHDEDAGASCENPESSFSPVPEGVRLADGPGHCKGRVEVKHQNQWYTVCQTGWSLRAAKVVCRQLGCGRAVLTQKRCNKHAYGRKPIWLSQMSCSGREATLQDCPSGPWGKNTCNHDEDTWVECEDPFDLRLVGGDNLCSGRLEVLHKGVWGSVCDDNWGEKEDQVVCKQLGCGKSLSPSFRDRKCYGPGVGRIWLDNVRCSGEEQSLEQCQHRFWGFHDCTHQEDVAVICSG", "test": "MST; Cy5-S76.T 2 nM, CD5L titrated; MST: S11/S23 in binding buffer pH 7.4, 1 mM MgCl2, 0.1% Tween 20, 1 nM labelled protein; S76 in TBS; S76.T (Cy5, 2 nM) in 50 mM Tris-HCl pH 7.8, 150 mM NaCl, 0.05% Tween 20; temperature not stated", "details": "protein: commercial; tags: His-tag; label: Cy5; hairpin"}
{"binder": "AGGUUGCAGCGUUCGACAGGAGGCUCACAACAG (structured_RNA, 2'-fluoro pyrimidines)", "note": "[S76.T]", "values": [{"measurement": "Kd", "value": "10.1 ± 2.3", "unit": "nM"}]}
